Here are results for one substance from US20030165934.

Series [1] deals with NH2-terminal fragment of ATRIP isolated from bacteria.
Series [2] has as its system full length Flag-ATRIP protein purified from insect cells following baculovirus infection.

Chain of Flag-ATR (ATR tagged with a Flag epitope, overexpressed in 293/293T cells) (chain, as listed by the source): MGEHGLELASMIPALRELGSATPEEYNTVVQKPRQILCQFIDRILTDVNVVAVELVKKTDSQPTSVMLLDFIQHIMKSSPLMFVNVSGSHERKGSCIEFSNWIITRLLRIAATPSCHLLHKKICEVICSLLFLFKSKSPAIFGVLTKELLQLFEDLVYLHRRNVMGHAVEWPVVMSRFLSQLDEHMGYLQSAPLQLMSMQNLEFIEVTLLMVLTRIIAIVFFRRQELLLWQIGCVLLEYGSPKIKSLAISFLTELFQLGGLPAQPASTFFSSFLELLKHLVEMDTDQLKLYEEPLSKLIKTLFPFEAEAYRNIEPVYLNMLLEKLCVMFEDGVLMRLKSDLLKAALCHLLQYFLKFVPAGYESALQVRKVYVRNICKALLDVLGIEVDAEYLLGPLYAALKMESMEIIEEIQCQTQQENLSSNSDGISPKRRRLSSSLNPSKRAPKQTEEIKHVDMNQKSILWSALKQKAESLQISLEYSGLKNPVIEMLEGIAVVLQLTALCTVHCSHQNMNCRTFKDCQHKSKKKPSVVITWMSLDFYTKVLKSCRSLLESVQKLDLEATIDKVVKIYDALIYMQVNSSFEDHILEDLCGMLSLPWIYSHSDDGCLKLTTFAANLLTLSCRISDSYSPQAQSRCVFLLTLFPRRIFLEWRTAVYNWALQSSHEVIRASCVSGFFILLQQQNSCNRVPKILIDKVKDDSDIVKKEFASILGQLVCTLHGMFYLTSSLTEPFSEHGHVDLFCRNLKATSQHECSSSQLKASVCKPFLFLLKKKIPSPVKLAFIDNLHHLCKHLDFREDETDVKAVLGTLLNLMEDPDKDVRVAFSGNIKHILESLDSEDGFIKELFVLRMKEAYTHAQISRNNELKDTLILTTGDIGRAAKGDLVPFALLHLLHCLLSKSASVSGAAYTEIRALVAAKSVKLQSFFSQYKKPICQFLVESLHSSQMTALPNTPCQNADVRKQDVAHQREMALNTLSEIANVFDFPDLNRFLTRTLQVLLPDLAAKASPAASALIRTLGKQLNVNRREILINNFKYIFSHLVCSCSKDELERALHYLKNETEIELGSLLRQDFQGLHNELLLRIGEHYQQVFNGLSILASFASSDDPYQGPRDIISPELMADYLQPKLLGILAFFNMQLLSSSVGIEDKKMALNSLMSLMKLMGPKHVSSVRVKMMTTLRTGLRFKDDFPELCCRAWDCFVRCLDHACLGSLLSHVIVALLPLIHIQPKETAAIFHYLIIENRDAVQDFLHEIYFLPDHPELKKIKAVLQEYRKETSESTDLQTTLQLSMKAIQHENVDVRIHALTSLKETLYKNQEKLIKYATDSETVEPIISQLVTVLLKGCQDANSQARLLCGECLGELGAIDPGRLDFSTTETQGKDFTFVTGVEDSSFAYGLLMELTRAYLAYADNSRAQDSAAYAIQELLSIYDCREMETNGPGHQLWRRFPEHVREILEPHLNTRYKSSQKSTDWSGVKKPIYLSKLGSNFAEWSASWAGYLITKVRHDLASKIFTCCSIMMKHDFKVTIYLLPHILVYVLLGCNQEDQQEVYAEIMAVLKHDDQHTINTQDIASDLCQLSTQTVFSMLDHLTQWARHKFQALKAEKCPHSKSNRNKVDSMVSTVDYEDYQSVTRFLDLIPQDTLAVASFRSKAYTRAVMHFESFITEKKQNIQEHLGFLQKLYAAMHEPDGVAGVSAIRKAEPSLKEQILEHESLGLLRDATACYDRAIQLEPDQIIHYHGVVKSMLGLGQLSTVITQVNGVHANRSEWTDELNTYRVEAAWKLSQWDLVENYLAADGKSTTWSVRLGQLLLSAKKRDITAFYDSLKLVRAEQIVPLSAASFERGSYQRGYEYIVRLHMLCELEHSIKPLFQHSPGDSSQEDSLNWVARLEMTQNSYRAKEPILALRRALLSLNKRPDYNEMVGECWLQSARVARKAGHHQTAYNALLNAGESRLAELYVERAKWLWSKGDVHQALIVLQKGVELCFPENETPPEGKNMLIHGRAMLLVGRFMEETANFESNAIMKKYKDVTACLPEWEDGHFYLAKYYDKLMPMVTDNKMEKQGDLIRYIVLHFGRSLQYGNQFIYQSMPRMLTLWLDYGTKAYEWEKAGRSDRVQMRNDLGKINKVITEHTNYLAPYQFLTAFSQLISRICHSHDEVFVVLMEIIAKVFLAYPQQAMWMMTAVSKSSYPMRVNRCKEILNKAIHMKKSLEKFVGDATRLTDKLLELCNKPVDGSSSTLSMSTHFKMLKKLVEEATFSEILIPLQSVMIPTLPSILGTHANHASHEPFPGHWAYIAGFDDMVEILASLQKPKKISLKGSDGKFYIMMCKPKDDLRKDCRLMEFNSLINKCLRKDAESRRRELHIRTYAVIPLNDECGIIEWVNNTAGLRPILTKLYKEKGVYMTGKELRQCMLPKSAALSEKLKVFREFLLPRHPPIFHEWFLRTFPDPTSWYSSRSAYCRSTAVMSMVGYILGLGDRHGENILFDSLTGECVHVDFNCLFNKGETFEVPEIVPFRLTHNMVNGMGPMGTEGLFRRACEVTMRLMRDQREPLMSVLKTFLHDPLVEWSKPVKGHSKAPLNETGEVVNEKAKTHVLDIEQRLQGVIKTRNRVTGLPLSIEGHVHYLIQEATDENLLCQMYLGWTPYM
Chain of NH2-terminal fragment of ATRIP isolated from bacteria (chain, as listed by the source): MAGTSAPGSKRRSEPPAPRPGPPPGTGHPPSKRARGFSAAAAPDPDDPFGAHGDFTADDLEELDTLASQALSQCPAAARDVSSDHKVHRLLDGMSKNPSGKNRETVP

For the substance “Flag-ATR (ATR tagged with a Flag epitope, overexpressed in 293/293T cells)”, the “phosphorylation in a kinase reaction” value was “recombinant full-length ATRIP isolated from baculovirus-infected insect cells and an NH2-terminal fragment of ATRIP isolated from bacteria could both be phosphorylated when placed in a kinase reaction with ATR isolated from human cells” in series [1]; “recombinant full-length ATRIP isolated from baculovirus-infected insect cells and an NH2-terminal fragment of ATRIP isolated from bacteria could both be phosphorylated when placed in a kinase reaction with ATR isolated from human cells” in series [2]. For the same substance, in the series with Myc(3x)-tagged ATRIP, the “^32P-labeling in kinase assay” value is recorded as “kinase assays with Flag-ATR immunoprecipitated from cells that also expressed Myc-ATRIP revealed ^32P-labeling of co-immunoprecipitated Myc-ATRIP”.
